Experiment [1] deals with T1, human SIRP-α v1 (human, UniProt P78324 31-149).
T1 construct: also called Human v1; Human V1
Put plainly: SPR. The essentials:
(§1)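 Runs took place at 25° C in PBS pH 7.4 containing 0.01% Tween-20 on a ProteOn XPR36 biosensor, with purified antibodies either amine-coupled to a GLC chip or captured through biotinylated Protein A on an NLC chip. SIRP analytes went in by one-shot kinetic injection at nominal concentrations based on A280 absorbance. Apparent rate constants came from a global simple Langmuir fit of double-referenced data, and KD was calculated as kd/ka.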
(In general: Surface plasmon resonance follows binding to a sensor surface in real time, without labels.)

For experiment [2], the target named is T2, human SIRP-α v2 (human).
T2 construct: also called Human v2; Human V2
The experiment can be described thus: SPR. The method in brief:
as §1

Experiment [3] has as its target T3, mouse 129 SIRP-α (mouse (129 strain), UniProt P97797 32-150).
T3 construct: also called m129
T3 chain: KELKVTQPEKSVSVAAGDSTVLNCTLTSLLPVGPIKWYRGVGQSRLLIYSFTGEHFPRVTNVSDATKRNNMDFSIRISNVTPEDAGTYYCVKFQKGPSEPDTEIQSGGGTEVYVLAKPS
The experiment can be described thus: SPR Koff +/-. The essentials: as §1

T1 sequence (P78324 31-149 limits assumed): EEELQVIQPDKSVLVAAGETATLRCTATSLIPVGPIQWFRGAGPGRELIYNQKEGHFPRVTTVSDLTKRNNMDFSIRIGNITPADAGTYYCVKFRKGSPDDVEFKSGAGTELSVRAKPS

B1: antibody 132 (antibody, V domains shown)
VH: DVQLVESGGGVVRPGESLRLSCAASGFSFRSYAMNWVRQAPGEGLEWVSRINSGGGGTDYADSVKGRFTISRDNSKNTLYLQMNSLRAEDTAVYYCAKQYDWNSFFDYWGLGALVTVSS
VL: ETVLTQSPATLSVSPGERATLSCRASQTVGSKLAWHQQKPGQAPRLLIYDASNRATGIPDRFSGSGSGTDFTLTISSPQTEDSAVYYCQQYYYWPPYRFGGGTKVEIK
notes: also called AB132; S132
As for B1, the results for the Kd in experiment [1] and in experiment [2] were 0.426 nM and 1.86 nM, respectively. In addition, in experiment [3], the binding result was “no binding”.

B2: antibody 198 (antibody, V domains shown)
VH: DVQLVESGGGVVRPGESLRLSCAASGFSFSSHAMNWVRQAPGEGLEWVSRINSGGGGTDYAESVKGRFTISRDNSENTLYLQMNSLRAEDTAVYYCAKQYDWNGFFDYWGLGALVTVSS
VL: ETVLTQSPATLSVSPGERATLSCRASQTVGSKLAWHQQKPGQAPRLLIYDATNRATGIPDRFSGSGSGTDFTLTISSLQTEDSAVYYCQQYYYWPPYRFGGGTKVEIK
notes: also called S198
Regarding B2, in experiment [3], the binding result was “no binding”.

B3: antibody 191 (antibody, V domains shown)
VH: DVQLVESGGGVVRPGESLRLSCAASGFSFSSYAMNWVRQAPGEGLEWVSRINSGGGGTDYAESVKGRFTISRDNSENTLYLQMNSLRAEDTAVYYCAKQYDWNGFFDYWGLGALVTVSS
VL: ETVLTQSPATLSVSPGERATLSCRASQTVGSKLAWHQQKPGQAPRLLIYDATNRATGIPDRFSGSGSGTDFTLTISGLQTEDSAVYYCQQYYYWPPYRFGGGTKVEIK
notes: also called S191
With B3, in experiment [3], the binding result is “no binding”.

B4: antibody 218 (antibody, V domains shown)
VH: DVQLVESGGGVVRPGESLTLSCTASGFTFTSSTMNWVRQAPGEGLDWVSSISTSGVITYYADSVKGRATISRDNSKNTLYLRLFSLRADDTAIYYCATDTFDHWGPGTLVTVSS
VL: ALTQPASVSANPGETVKITCFGSSGNYGWFQQKSPGSAPVTVIHYNNKRPSDIPSRFSGSKSGSTGTLTITGVRAEDEAVYFCGAWETGSATFGAGTTLTVL
notes: also called AB218; S218
With B4, the equilibrium dissociation constant (Kd) came to 0.123 nM in experiment [1] and 0.276 nM in experiment [2].

B5: antibody 175 (antibody, V domains shown)
VH: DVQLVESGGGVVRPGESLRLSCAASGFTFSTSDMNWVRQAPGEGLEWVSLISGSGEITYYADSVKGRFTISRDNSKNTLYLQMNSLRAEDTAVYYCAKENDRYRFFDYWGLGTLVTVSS
VL: ETVLTQSPGILSLSPGERATLTCRASQSVYTYLAWYQEKPGQAPRLLIYGASSRAAGIPDRFSGSGSGTEFTLTISSLQSEDFAVYYCQQYYDRPPLTFGGGTKVEIK
notes: also called S175
As for B5, the Kd is 0.137 nM in experiment [1] and 0.662 nM in experiment [2].

B6: antibody 189 (antibody, V domains shown)
VH: DVQLVESGGGVVRPGESLRLSCAASGFTFSSSDMNWVRQAPGEGLEWVSLISGSGEITYYADSVKGRFTISRDNSKNTLYLQMNSLRAEDTAIYYCAKENNMYRFFDYWGLGTLVTVSS
VL: ETVLTQSPGTLSLSPGERATLSCRASQSVYTYLAWYQQKPGQPPRLLIHAARNRAAGIPDRFSGSGSGTEFTLTISSLQSEDFAVYYCQQYYDRPPLTFGGGTKVEIK
notes: also called S189
As for B6, the equilibrium dissociation constant (Kd) in experiment [1] is 0.31 nM; in experiment [2], 1.9 nM.

B7: antibody 163 (antibody, V domains shown)
VH: DVQLVESGGGLVRPGESLRLSCAASGFTFTNYAVTWVRQAPGEGLEWVSLISVTGTTYYADSVKGRFTISRDNSKSTLYLQMNGLRAEDTAVYYCAKVTWKNVFDYWGLGTLVTVSS
VL: EIVLTQSPGTLSVSPGERATFSCRASQTVGSKLAWYQQKPGQAPRLLIYDANTRATGIPARFSGSGSGTEFTLTISSLQSEDFAVYYCQQHTDWPPYTFGGGTKVEIK
notes: also called S163
For the molecule B7, in experiment [3], the binding result is listed as “no binding”.

B8: antibody 164 (antibody, V domains shown)
VH: DVQLVESGGGLVRPGESLRLSCAASGFTFTNYAVTWVRQAPGEGLEWVSLISVTGTTYYADSVKGRFTISRDNSKSTLYLQMNGLRAEDTAVYYCAKVTWKNVFDYWGLGTLVTVSS
VL: EIVLTQSPGTLSVSPGERATFSCRASQTVGSKLAWYQQKPGQAPRLLIYDANTRATGIPARFSGSRSGTEFTLTISSLQSEDFAVYYCQQHTDWPPYTFGGGTKVEIK
notes: also called S164
For the molecule B8, the binding result in experiment [3] is reported as “no binding”.

B9: antibody 162 (antibody, V domains shown)
VH: DVQLVESGGGLVRPGESLRLSCAASGFTFTNYAVTWVRQAPGEGLEWVSLISVTGTTYYADSVKGRFTISRDNSKSTLYLQMNSLRAEDTAVYYCAKVTWKNVFDYWGLGTLVTVSS
VL: EIVLTQSPGTLSVSPGERATFSCRASQTVGSKLAWYQQKPGQAPRLLIYDANTRATGIPARFSGSGSGTEFTLTISSLQSEDFAVYYCQQHTDWPPYTFGGGTKVEIK
notes: also called S162
Consider B9, for which, in experiment [3], the binding result is reported as “no binding”.

B10: antibody 202 (antibody, V domains shown)
VH: DVQLVESGGGVVRPGESLRLSCAASGFTFSSYAMSWVRQAPGKGLEWLAGISAGGSDTYYIDSVKGRFTISRDNSKNSLYLQMNSLTAEDTAVYYCARETWNHLFDYWGLGTLVTVSS
VL: ALTQPASVSANPGETVKITCSGGGYYSTYYGWYQQRSPGSAPVTVIHSDDKRPSDIPSRFSGSASGSAATLTITGVRVEDEAVYYCAGYDGRTYLNTFGAGTTLTVL
notes: also called S202
As to B10, the Kd in experiment [1] and in experiment [2] was < 0.001 nM throughout.

B11: antibody 121 (antibody, V domains shown)
VH: VQLVESGGGVVQPGGSLRLSCAASGFSFSNFAMTWVRQAPGEGLEWVSTIGSGDTYYADSVKGRFTISRDNSKNTLYLQMNSLRAEDTAVYYCAKDSTVSWSGDFFDYWGLGTLVTVSS
VL: EIVLTQSPATLSVSPGERATFSCRASQNVKNDLAWYQQRPGQAPRLLIYAARIRETGIPERFSGSGSGTEFTLTITSLQSEDFAVYYCQQYYDWPPFTFGGGTKVEIK
notes: also called S121
Consider B11, for which the Kd in experiment [1] was 0.157 nM; in experiment [2], 0.0501 nM. Moreover, the binding result in experiment [3] was “no binding”.

B12: antibody 120 (antibody, V domains shown)
VH: VQLVESGGGVVQPGGSLRLSCAASGFSFSNFAMTWVRQAPGEGLEWVSTIGSGDTYYADSVKGRFTISRDNSKNTLYLQMNSLRAEDTAVYYCAKDSTVSWSGDFFDYWGLGTRVTVSS
VL: EIVLTQSPATLSVSPGERATFSCRASQNVKNDLAWYQQRPGQAPRLLIYAARIRETGIPERFSGSGSGTEFTLTITSLQSEDFAVYYCQQYYDWPPFTFGGGTKVEIK
notes: also called S120
On to B12, for which the Kd came out at 0.214 nM in experiment [1] and 0.0856 nM in experiment [2]. Also, the binding result in experiment [3] is listed as “no binding”.

B13: antibody 201 (antibody, V domains shown)
VH: DVQLVESGGAVVRPGETLRLSCTASGFTFSSYAMSWVRQAPGKGLEWVSGISASGSDTYYADSVKGRSTISRDNSKNTLYLRMSSLTAEDTAVYYCARETWNHLFDYWGLGTLVTVSS
VL: ALTQPASVSANPGETVKITCSGGGTSSYYGWYQQKSPGSAPVTLIHSDDKRPSDIPSRFSGSASGSTATLTITGVQVEDEAVYYCGGYDYTTYVNTFGAGTTLTVL
notes: also called S201
As for B13, the values for the equilibrium dissociation constant (Kd) in experiment [1] and in experiment [2] were < 0.001 nM and 0.00487 nM, respectively.

B14: antibody 3 (antibody, V domains shown)
VH: AVTLDESGGGLQTPGGALSLVCKASGFIFSDYGMNWVRQAPGKGLEFVAQITSGSRTYYGAAVKGRATISRDNRQSTVKLQLNNLRAEDTGIYFCARDFGSGVGSIDAWGNGTEVIVSS
VL: ALTQPASVSANLGGTVKITCSGSRGRYGWYQQRSPGSAPVTVIYRDNQRPSNIPSRFSSSTSGSTSTLTITGVQADDESVYFCGSYDGSIDIFGAGTTLTVL
notes: also called AB3; S3
Regarding B14, the Kd in experiment [1] was determined as 0.162 nM; in experiment [2], 0.0767 nM.

Usually Kd stands for the free concentration of one partner at which half of the binding sites on the other are occupied at equilibrium, for simple one-to-one binding.

The record behind these values is patent US20210363269A1 (ALX ONCOLOGY, published 2021).
